Reference: US20120316071A1 (published 2012)
Where a chain is given by its changes, count along the chain named. Names and notes keep the numbering of the source. Values belong to the binder of their own block, whether it stands above or below them.

What was measured:
[1] = biological target: T1, rHuman Erythropoietin R/Fc Chimera, CF (human, UniProt P19235 25-250); experiment: ECL multispot (MSD) assay, antigen spotted on the plate, Fab in solution; blank spot of the same well 331
T1 construct: Bought from R&D Systems; also called EPO R; EPO R/Fc; Fc part of the bought chimera not given
T1 sequence (looked up): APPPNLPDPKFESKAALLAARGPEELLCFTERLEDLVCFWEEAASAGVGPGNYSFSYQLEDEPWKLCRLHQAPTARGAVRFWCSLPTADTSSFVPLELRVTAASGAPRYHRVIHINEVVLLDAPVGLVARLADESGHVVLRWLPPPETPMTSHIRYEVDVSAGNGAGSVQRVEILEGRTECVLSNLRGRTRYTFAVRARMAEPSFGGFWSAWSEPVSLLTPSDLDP

[2] = biological target: T2, rHuman EGF R/Fc Chimera, CF (human, UniProt P00533 25-645); experiment: as above
T2 construct: Bought from R&D Systems; also called epidermal growth factor receptor; Fc part of the bought chimera not given

[3] = biological target: T3, rHuman Notch-1/Fc Chimera, CF (human, UniProt P46531 19-526); experiment: as above
T3 construct: Bought from R&D Systems; Fc part of the bought chimera not given

[4] = biological target: T4, rHuman IGF-1 sR, (IGF-1 sR), CF (human, UniProt P08069 31-932); experiment: as above
T4 construct: Bought from R&D Systems as a soluble receptor; also called insulin-like growth factor-1 soluble receptor
Procedure: (§1) An 150 μl aliquot of 1% Bovine Serum Albumin (BSA) in Tris-buffered Saline Tween (TBST) was added to each well and allowed to incubate for 30 min at 20° C. followed by washing and tap drying to completely remove any residual solution. Subsequently, a 12.5 μl aliquot of 1% BSA TBST was added to each well followed by the addition of a 12.5 μl aliquot of a purified Fab. The plate was sealed and incubated for 1 hour at 20° C. with shaking
(§2) TAG-detection antibody at 25 μl was added to each well and allowed to incubate for 1 hour at 20° C. with shaking. Finally, 15 μl of Read Buffer P with Surfactant (Cat # R92PC-1, Meso Scale Discovery) was added to each well. The electrochemiluminescence was measured using a Sector Imager 2400 (Meso Scale Discovery). Data was analyzed by comparing the ECL signals for an antigen to the blank of each well. A signal to blank ratio of 4 or more was considered a “Hit” Fab.

[5] = biological target: T5, rHuman ErbB2/Fc Chimera, CF (human, UniProt P04626 23-652); experiment: as above
T5 construct: Bought from R&D Systems; also called human epidermal growth factor 2 receptor; Fc part of the bought chimera not given

Recombinant Human DLL4 [6] = biological target: T6, Recombinant Human DLL4 (human, UniProt Q9NR61 27-524); experiment: as above
T6 construct: Bought from R&D Systems; also called delta-like protein 4; rHuman DLL4
Procedure: as §1, §2

[7] = biological target: T7, rHuman CD44/Fc Chimera, CF (human, UniProt P16070 21-220); experiment: ECL multispot (MSD) assay, antigen spotted on the plate, Fab in solution; blank spot of the same well 284
T7 construct: Bought from R&D Systems; Fc part of the bought chimera not given

[8] = biological target: T8, rHuman P-Cadherin/Fc Chimera, CF (human, UniProt P22223 108-654); experiment: as above
T8 construct: Bought from R&D Systems; Fc part of the bought chimera not given

[9] = biological target: T9, rHuman HGF R/c-MET/Fc Chimera, CF (human, UniProt P08581 25-932); experiment: as above
T9 construct: Bought from R&D Systems; also called HGF R/Fc; hepatocyte growth factor receptor; Fc part of the bought chimera not given
T9 sequence (P08581 25-932, change not shown): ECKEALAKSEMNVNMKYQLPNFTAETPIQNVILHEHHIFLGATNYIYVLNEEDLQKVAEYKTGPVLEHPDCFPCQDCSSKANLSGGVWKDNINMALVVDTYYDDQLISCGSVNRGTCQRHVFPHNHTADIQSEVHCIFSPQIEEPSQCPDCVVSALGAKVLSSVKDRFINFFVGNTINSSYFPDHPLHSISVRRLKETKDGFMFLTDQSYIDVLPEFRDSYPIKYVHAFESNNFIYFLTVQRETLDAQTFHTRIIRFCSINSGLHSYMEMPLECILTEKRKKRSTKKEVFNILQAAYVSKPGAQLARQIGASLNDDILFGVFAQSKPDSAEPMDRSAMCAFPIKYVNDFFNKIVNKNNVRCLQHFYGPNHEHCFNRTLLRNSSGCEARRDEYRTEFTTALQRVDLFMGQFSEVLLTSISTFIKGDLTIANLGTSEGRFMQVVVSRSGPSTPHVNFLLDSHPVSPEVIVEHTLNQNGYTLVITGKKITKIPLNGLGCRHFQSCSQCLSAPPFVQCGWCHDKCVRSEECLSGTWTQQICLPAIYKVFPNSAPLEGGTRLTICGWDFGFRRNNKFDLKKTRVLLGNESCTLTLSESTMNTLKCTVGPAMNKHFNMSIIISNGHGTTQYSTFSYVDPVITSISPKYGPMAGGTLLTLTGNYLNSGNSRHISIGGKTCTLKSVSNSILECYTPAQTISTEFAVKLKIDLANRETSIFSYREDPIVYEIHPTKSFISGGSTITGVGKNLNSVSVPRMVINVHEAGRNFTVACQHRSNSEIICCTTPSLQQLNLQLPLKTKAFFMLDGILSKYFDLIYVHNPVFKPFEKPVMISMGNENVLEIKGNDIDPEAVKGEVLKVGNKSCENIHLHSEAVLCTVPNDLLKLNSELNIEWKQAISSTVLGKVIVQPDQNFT

[10] = biological target: T2, rHuman EGF R/Fc Chimera, CF; experiment: as above
Procedure: as §1, §2

[11] = biological target: T3, rHuman Notch-1/Fc Chimera, CF; experiment: as above
Procedure: as §1, §2

[12] = biological target: T4, rHuman IGF-1 sR, (IGF-1 sR), CF; experiment: as above
Procedure: as §1, §2

[13] = biological target: T5, rHuman ErbB2/Fc Chimera, CF; experiment: as above
Procedure: as §1, §2

Recombinant Human DLL4 [14] = biological target: T6, Recombinant Human DLL4; experiment: as above
Procedure: as §1, §2

[15] = biological target: T7, rHuman CD44/Fc Chimera, CF; experiment: ECL multispot (MSD) assay, antigen spotted on the plate, Fab in solution; blank spot of the same well 231
Procedure: as §1, §2

[16] = biological target: T8, rHuman P-Cadherin/Fc Chimera, CF; experiment: as above
Procedure: as §1, §2

[17] = biological target: T1, rHuman Erythropoietin R/Fc Chimera, CF; experiment: as above
Procedure: as §1, §2

[18] = biological target: T9, rHuman HGF R/c-MET/Fc Chimera, CF; experiment: as above
Procedure: as §1, §2

[19] = biological target: T2, rHuman EGF R/Fc Chimera, CF; experiment: as above
Procedure: as §1, §2

[20] = biological target: T3, rHuman Notch-1/Fc Chimera, CF; experiment: as above
Procedure: as §1, §2

[21] = biological target: T4, rHuman IGF-1 sR, (IGF-1 sR), CF; experiment: as above
Procedure: as §1, §2

[22] = biological target: T5, rHuman ErbB2/Fc Chimera, CF; experiment: as above
Procedure: as §1, §2

Recombinant Human DLL4 [23] = biological target: T6, Recombinant Human DLL4; experiment: as above
Procedure: as §1, §2

[24] = biological target: T7, rHuman CD44/Fc Chimera, CF; experiment: ECL multispot (MSD) assay, antigen spotted on the plate, Fab in solution; blank spot of the same well 407
Procedure: as §1, §2

[25] = biological target: T8, rHuman P-Cadherin/Fc Chimera, CF; experiment: as above
Procedure: as §1, §2

[26] = biological target: T1, rHuman Erythropoietin R/Fc Chimera, CF; experiment: as above
Procedure: as §1, §2

[27] = biological target: T9, rHuman HGF R/c-MET/Fc Chimera, CF; experiment: as above
Procedure: as §1, §2

[28] = biological target: T2, rHuman EGF R/Fc Chimera, CF; experiment: as above
Procedure: as §1, §2

[29] = biological target: T3, rHuman Notch-1/Fc Chimera, CF; experiment: as above
Procedure: as §1, §2

[30] = biological target: T4, rHuman IGF-1 sR, (IGF-1 sR), CF; experiment: as above
Procedure: as §1, §2

[31] = biological target: T5, rHuman ErbB2/Fc Chimera, CF; experiment: as above
Procedure: as §1, §2

Recombinant Human DLL4 [32] = biological target: T6, Recombinant Human DLL4; experiment: as above
Procedure: as §1, §2

B1: Fab VH1-46_IGHD6-6*01_IGHJ1*01 S102A/S103P/S104F/H111F (APFF) & L6_IGKJ1*01 S31E (Fab, V domains shown)
VH: QVQLVQSGAEVKKPGASVKVSCKASGYTFTSYYMHWVRQAPGQGLEWMGIINPSGGSTSYAQKFQGRVTMTRDTSTSTVYMELSSLRSEDTAVYYCAREEYAPFSAEYFQFWGQGTLVTVSS
VL: EIVLTQSPATLSLSPGERATLSCRASQSVSEYLAWYQQKPGQAPRLLIYDASNRATGIPARFSGSGSGTDFTLTISSLEPEDFAVYYCQQRSNWPPWTFGQGTKVEIKR
notes: Tested as an E. coli Fab; The heavy chain carries CH1 with His6 and Flag tags from plasmid A, the light chain a kappa CL from plasmid C; also called APFF / S31E; H:APFF & L6_IGKJ1*01 S31E
ECL signal [1]: 441
ECL signal [2]: 297
ECL signal [3]: 460
ECL signal [4]: 367
ECL signal [5]: 313
ECL signal (Recombinant Human DLL4 [6]): 171000

B3: Fab VH1-46_IGHD6-6*01_IGHJ1*01 S102A/S103P/S104F/H111F (APFF) & L6_IGKJ1*01 S31G (Fab, V domains shown)
VH: B1 VH
VL: B1 VL with E31G
notes: Tested as an E. coli Fab; The heavy chain carries CH1 with His6 and Flag tags from plasmid A, the light chain a kappa CL from plasmid C; also called APFF / S31G; H:APFF & L6_IGKJ1*01 S31G
ECL signal [15]: 381
ECL signal [16]: 384
ECL signal [17]: 414
ECL signal [18]: 378
ECL signal [19]: 391
ECL signal [20]: 426
ECL signal [21]: 301
ECL signal [22]: 311
ECL signal (Recombinant Human DLL4 [23]): 65500

Other lines, results leading:

ECL signal [7]: 445
ECL signal [8]: 361
ECL signal [9]: 197
ECL signal [10]: 320
ECL signal [11]: 351
ECL signal [12]: 293
ECL signal [13]: 236
ECL signal (Recombinant Human DLL4 [14]): 188000
B2: Fab VH1-46_IGHD6-6*01_IGHJ1*01 S102A/S103P/S104F/H111F (APFF) & L6_IGKJ1*01 S31Y (Fab, V domains shown)
VH: B1 VH
VL: B1 VL with E31Y
notes: Tested as an E. coli Fab; The heavy chain carries CH1 with His6 and Flag tags from plasmid A, the light chain a kappa CL from plasmid C; also called APFF / S31Y; H:APFF & L6_IGKJ1*01 S31Y

ECL signal [24]: 438
ECL signal [25]: 379
ECL signal [26]: 548
ECL signal [27]: 329
ECL signal [28]: 390
ECL signal [29]: 383
ECL signal [30]: 415
ECL signal [31]: 392
ECL signal (Recombinant Human DLL4 [32]): 165000
B4: Fab VH1-46_IGHD6-6*01_IGHJ1*01 S102A/S103P/S104F/H111F (APFF) & L6_IGKJ1*01 S31Q (Fab, V domains shown)
VH: B1 VH
VL: B1 VL with E31Q
notes: Tested as an E. coli Fab; The heavy chain carries CH1 with His6 and Flag tags from plasmid A, the light chain a kappa CL from plasmid C; also called APFF / S31Q; H:APFF & L6_IGKJ1*01 S31Q
